Experimental data from PMC9482650, “Quantitative fragmentomics allow affinity mapping of interactomes” (Nature Communications, 2022).

Legend:
Assay in all cases: holdup assay
Design in all cases: key: below the threshold = too weak to quantify, mostly under pKd 3.1 to 4
[1] = target: SCRIB_1, Q14160
[2] = target: Inadl_10, Q8NI35
[3] = target: T1, PTPN13_1, Q12923
T1 sequence (Q12923 1088-1188, limits assumed, looked up): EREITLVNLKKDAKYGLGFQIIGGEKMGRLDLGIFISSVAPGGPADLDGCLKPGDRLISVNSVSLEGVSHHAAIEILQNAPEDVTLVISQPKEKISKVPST

[4] = target: T2, SNTB1, Q13884
T2 sequence (Q13884 107-205, limits assumed, looked up): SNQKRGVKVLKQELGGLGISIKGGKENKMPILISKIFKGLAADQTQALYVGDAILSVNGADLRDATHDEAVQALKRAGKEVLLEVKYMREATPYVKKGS

[5] = target: T3, SNTG2, Q9NY99
T3 sequence (Q9NY99 68-166, limits assumed, looked up): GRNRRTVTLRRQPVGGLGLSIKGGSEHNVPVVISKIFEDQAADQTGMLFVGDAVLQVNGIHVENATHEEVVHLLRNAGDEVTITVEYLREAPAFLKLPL

[6] = target: T4, LRRC7, Q96NW7
T4 sequence (Q96NW7 1440-1537, limits assumed, looked up): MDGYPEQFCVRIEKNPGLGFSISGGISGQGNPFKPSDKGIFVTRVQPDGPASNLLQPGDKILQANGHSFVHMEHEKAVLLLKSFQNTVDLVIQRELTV

[7] = target: T5, GRIP1_2, Q9Y3R0
T5 sequence (Q9Y3R0 145-248, limits assumed, looked up): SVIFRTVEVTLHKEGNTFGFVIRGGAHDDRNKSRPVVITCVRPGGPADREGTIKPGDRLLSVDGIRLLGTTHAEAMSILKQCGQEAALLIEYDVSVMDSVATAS

[8] = target: MAGI2_5, Q86UL8
[9] = target: T6, APBA1_2, Q02410
T6 sequence (Q02410 742-832, limits assumed, looked up): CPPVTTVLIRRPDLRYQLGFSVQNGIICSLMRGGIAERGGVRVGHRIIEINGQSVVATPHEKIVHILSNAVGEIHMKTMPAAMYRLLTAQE

[10] = target: DLG1_1, Q12959
[11] = target: DLG2_2, Q15700
[12] = target: NHERF4_2, Q86UT5
[13] = target: T7, GRIP1_3, Q9Y3R0
T7 sequence (Q9Y3R0 247-346, limits assumed, looked up): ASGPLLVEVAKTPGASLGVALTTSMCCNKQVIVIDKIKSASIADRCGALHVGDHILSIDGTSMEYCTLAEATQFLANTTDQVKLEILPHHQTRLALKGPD

[14] = target: T8, RHPN1, Q8TCX5
T8 sequence (Q8TCX5 508-602, limits assumed, looked up): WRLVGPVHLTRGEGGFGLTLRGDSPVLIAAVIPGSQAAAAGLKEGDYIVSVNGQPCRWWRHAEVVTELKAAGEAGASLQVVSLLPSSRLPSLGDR

[15] = target: CASK, O14936
[16] = target: PARD3_3, Q8TEW0
[17] = target: T9, PDZRN3_1, Q9UPQ7
T9 sequence (Q9UPQ7 244-349, limits assumed, looked up): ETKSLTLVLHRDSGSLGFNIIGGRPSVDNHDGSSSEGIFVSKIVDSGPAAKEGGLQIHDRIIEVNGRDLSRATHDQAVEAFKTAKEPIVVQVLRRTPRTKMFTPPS

[18] = target: Inadl_4, Q8NI35
[19] = target: T10, MPDZ_12, O75970
T10 sequence (O75970 1857-1958, limits assumed, looked up): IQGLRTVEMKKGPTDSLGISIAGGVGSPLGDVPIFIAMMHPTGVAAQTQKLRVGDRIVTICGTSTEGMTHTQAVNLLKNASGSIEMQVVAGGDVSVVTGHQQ

[20] = target: DLG5_1, Q8TDM6
[21] = target: T11, RADIL, Q96JH8
T11 sequence (Q96JH8 971-1071, limits assumed, looked up): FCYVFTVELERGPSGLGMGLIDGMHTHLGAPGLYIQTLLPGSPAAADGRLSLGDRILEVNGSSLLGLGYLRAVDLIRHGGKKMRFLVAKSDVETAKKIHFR

[22] = target: DLG4_2, P78352
[23] = target: T12, ARHGEF11, O15085
T12 sequence (O15085 42-136, limits assumed, looked up): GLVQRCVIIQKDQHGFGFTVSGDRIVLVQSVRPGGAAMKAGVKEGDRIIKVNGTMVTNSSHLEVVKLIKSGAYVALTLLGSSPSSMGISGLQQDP

[24] = target: MAGI2_3, Q86UL8
[25] = target: ARHGEF12, Q9NZN5-2
[26] = target: SCRIB_3, Q14160
[27] = modified: phospho on T at position -2 from the C-terminal residue
[28] = plain residues with an end cap or a label only (N-terminal biotin on a linker: ado-ado)

Chain of ARHGEF12, Q9NZN5-2 (Q9NZN5 other isoform, or with tags, fused parts or gaps): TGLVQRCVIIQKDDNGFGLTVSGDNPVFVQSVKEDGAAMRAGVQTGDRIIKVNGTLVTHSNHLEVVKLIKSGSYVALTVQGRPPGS
Chain of NHERF4_2, Q86UT5 (Q86UT5 220-308): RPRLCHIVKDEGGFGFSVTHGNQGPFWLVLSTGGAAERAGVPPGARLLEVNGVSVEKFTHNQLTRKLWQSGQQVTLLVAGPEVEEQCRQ
Chain of CASK, O14936 (O14936 487-570): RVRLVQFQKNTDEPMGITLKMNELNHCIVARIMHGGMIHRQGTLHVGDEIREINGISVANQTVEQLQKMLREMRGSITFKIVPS
Chain of PARD3_3, Q8TEW0 (Q8TEW0 582-685): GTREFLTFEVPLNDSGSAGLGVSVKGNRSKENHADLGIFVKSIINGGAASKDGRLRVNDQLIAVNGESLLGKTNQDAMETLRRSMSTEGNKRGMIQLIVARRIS
Chain of SCRIB_1, Q14160 (Q14160 718-814): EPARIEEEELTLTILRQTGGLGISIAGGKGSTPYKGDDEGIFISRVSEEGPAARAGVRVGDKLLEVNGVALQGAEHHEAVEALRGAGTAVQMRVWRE
Chain of MAGI2_3, Q86UL8 (Q86UL8 600-682): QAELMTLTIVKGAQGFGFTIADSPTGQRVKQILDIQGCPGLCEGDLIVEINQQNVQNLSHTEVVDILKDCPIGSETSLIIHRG
Chain of Inadl_4, Q8NI35 (Q8NI35 547-651): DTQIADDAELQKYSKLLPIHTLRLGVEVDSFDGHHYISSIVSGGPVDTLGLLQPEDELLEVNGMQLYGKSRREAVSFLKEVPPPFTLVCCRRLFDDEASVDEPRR
Chain of SCRIB_3, Q14160 (Q14160 999-1103): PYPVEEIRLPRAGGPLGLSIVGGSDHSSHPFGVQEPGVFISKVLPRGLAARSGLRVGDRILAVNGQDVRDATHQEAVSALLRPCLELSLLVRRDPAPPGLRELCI
Chain of Inadl_10, Q8NI35 (Q8NI35 1673-1763): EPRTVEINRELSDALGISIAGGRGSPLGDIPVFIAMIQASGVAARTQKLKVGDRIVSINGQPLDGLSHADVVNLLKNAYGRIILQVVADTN
Chain of DLG2_2, Q15700 (Q15700 189-283): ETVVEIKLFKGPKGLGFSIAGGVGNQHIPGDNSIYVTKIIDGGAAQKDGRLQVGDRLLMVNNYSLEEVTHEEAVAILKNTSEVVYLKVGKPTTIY
Chain of MAGI2_5, Q86UL8 (Q86UL8 915-1017): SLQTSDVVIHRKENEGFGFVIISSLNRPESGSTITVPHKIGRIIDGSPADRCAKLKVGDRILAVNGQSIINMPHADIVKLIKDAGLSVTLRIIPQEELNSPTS
Chain of DLG4_2, P78352 (P78352 155-259): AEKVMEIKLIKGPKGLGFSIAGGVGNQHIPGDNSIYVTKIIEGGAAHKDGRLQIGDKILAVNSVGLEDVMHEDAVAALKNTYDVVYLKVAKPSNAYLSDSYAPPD
Chain of DLG5_1, Q8TDM6 (Q8TDM6 617-713): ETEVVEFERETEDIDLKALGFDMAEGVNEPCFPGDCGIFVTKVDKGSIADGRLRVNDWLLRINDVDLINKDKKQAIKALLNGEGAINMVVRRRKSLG

Binder: RLQRRRETQV [HPV18-E6_-2P, P06463]
- pKd [1, 27]: below the threshold
- pKd [2, 27]: below the threshold
- pKd [3, 27]: below the threshold
- pKd [4, 27]: below the threshold
- pKd [5, 27]: below the threshold
- pKd [6, 27]: below the threshold
- pKd [7, 27]: below the threshold
- pKd [8, 27]: below the threshold
- pKd [9, 27]: below the threshold
- pKd [10, 27]: below the threshold
- pKd [11, 27]: 3.48
- pKd [12, 27]: below the threshold
- pKd [13, 27]: below the threshold
- pKd [14, 27]: below the threshold
- pKd [15, 27]: below the threshold
- pKd [16, 27]: below the threshold
- pKd [17, 27]: below the threshold
- pKd [18, 27]: below the threshold
- pKd [19, 27]: below the threshold
- pKd [20, 27]: below the threshold
- pKd [21, 27]: below the threshold
- pKd [22, 27]: 3.65
- pKd [23, 27]: below the threshold
- pKd [24, 27]: below the threshold
- pKd [25, 27]: below the threshold
- pKd [26, 27]: below the threshold

Binder: QPCFNKLFPL [LPXN, O60711]
- pKd [1, 28]: below the threshold
- pKd [2, 28]: below the threshold
- pKd [3, 28]: below the threshold
- pKd [4, 28]: below the threshold
- pKd [5, 28]: below the threshold
- pKd [6, 28]: below the threshold
- pKd [7, 28]: below the threshold
- pKd [8, 28]: below the threshold
- pKd [9, 28]: 3.63
- pKd [10, 28]: below the threshold
- pKd [11, 28]: below the threshold
- pKd [12, 28]: below the threshold
- pKd [13, 28]: below the threshold
- pKd [14, 28]: below the threshold
- pKd [15, 28]: below the threshold
- pKd [16, 28]: below the threshold
- pKd [17, 28]: below the threshold
- pKd [18, 28]: below the threshold
- pKd [19, 28]: below the threshold
- pKd [20, 28]: below the threshold
- pKd [21, 28]: below the threshold
- pKd [22, 28]: below the threshold
- pKd [23, 28]: below the threshold
- pKd [24, 28]: below the threshold
- pKd [25, 28]: 3.56
- pKd [26, 28]: below the threshold

Binder: SSALYGESDL [ACTN2, P35609]
- pKd [1, 28]: 4.23
- pKd [2, 28]: below the threshold
- pKd [3, 28]: below the threshold
- pKd [4, 28]: 4.05
- pKd [5, 28]: below the threshold
- pKd [6, 28]: 3.86
- pKd [7, 28]: below the threshold
- pKd [8, 28]: below the threshold
- pKd [9, 28]: below the threshold
- pKd [10, 28]: below the threshold
- pKd [11, 28]: 3.52
- pKd [12, 28]: below the threshold
- pKd [13, 28]: below the threshold
- pKd [14, 28]: 3.51
- pKd [15, 28]: below the threshold
- pKd [16, 28]: below the threshold
- pKd [17, 28]: below the threshold
- pKd [18, 28]: below the threshold
- pKd [19, 28]: below the threshold
- pKd [20, 28]: below the threshold
- pKd [21, 28]: below the threshold
- pKd [22, 28]: 3.61
- pKd [23, 28]: below the threshold
- pKd [24, 28]: below the threshold
- pKd [25, 28]: 4.06
- pKd [26, 28]: 5.1

Binder: GQEEQVTTRL [TRPC5, Q9UL62]
- pKd [1, 28]: 3.79
- pKd [2, 28]: below the threshold
- pKd [3, 28]: below the threshold
- pKd [4, 28]: 4.04
- pKd [5, 28]: 4.44
- pKd [6, 28]: below the threshold
- pKd [7, 28]: below the threshold
- pKd [8, 28]: 3.54
- pKd [9, 28]: 3.58
- pKd [10, 28]: below the threshold
- pKd [11, 28]: below the threshold
- pKd [12, 28]: below the threshold
- pKd [13, 28]: below the threshold
- pKd [14, 28]: 4.85
- pKd [15, 28]: below the threshold
- pKd [16, 28]: 3.5
- pKd [17, 28]: 3.8
- pKd [18, 28]: below the threshold
- pKd [19, 28]: below the threshold
- pKd [20, 28]: below the threshold
- pKd [21, 28]: below the threshold
- pKd [22, 28]: below the threshold
- pKd [23, 28]: 4.37
- pKd [24, 28]: below the threshold
- pKd [25, 28]: 4.9
- pKd [26, 28]: 4.22

Binder: PRISRSQSEL [CCDC134, Q9H6E4]
- pKd [1, 28]: below the threshold
- pKd [2, 28]: below the threshold
- pKd [3, 28]: below the threshold
- pKd [4, 28]: below the threshold
- pKd [5, 28]: below the threshold
- pKd [6, 28]: below the threshold
- pKd [7, 28]: below the threshold
- pKd [8, 28]: below the threshold
- pKd [9, 28]: below the threshold
- pKd [10, 28]: below the threshold
- pKd [11, 28]: below the threshold
- pKd [12, 28]: below the threshold
- pKd [13, 28]: below the threshold
- pKd [14, 28]: below the threshold
- pKd [15, 28]: below the threshold
- pKd [16, 28]: below the threshold
- pKd [17, 28]: 3.65
- pKd [18, 28]: below the threshold
- pKd [19, 28]: below the threshold
- pKd [20, 28]: below the threshold
- pKd [21, 28]: below the threshold
- pKd [22, 28]: below the threshold
- pKd [23, 28]: 3.88
- pKd [24, 28]: below the threshold
- pKd [25, 28]: 4.27
- pKd [26, 28]: 4.06
